# Test results as given in patent US20220356229A1 (published 2022).
# Target: SARS-CoV-2 Spike protein (SARS-CoV-2, UniProt P0DTC2 14-1208)
# Test: HT-SPR (Carterra LSA), mAb coupled to chip, Spike in solution, 1:1 Langmuir fit
Binder,Kd [nM],koff [s⁻¹],kon [M⁻¹ s⁻¹]
"mAb 1495 (antibody, V domains shown, human IgG1) VH: QVQLVESGGGVVQPGRSLRLSCTASGFTFSSYAMHWVRQAPGKGLEWVAVISYDGNNKYYGDSVKGRFTISRDNSKNTLYLQMNSLRAEDTAVYYCAKGADTPHYSGYHFLSVGYYFYGMDVWGQGTTVTVSS VL: DIQMTQSPSSLSASVGDRVTITCRASQSISYYLNWYQQKPGKAPQLLIYAASSLQSGVPSRFSGSRSGTDFTLTISSLQPEDFATYYCQQSYSTPFTFGPGTKVDIKR",0.0972,1.01e-05,103000
"mAb 1444 (antibody, V domains shown, human IgG1) VH: QVQLVQSGAEVKKPGASVKVSCKASGYTFTAYYMHWVRQAPGQGLEWMGWINPNSDDTNYAQKFQGRVTMTRDTSISTAYMELSRLRSDDTAVYYCAREEGVFTIGDRYFDLWGRGTLVSVSS VL: QTVVTQEPSFSVSPGGTVTLTCGLSSGSVSTSYYPSWYQQTPGQAPRTLIYNTNTRSSGVPDRFSGSILGNKAALTITGAQADDESDYYCVLYMGSGIWVFGGGTKLTVLG",≤ 0.0221,≤ 1e-05,453000

# Target: SARS-CoV Spike protein (full length Spike, coupled to optically encoded beads) (SARS-CoV, UniProt P59594 14-1190)
# Test: not given
row,Binder,"median fluorescence, fold over isotype [fold over isotype]"
1,"anti-SARS-CoV-2 antibody 431 (antibody, V domains shown) VH: QVQLVESGGGVVQPGRSLRLSCAASGFTFSSYAMHWVRQAPGKGLEWLAVISYDGSNKYYADSVKGRFTISRDNSKNTLYLQMNSLRAEDTAVYYCARSFRGGYYYGMDVWGQGTTVTVSS VL: DIQLTQSPSFLSASVGDRVTITCRASQGISSYLAWYQQKPGKAPKLLIYAASTLQSGVPSRFSGSGSGTEFTLTISSLQPEDFATYYCQQLNSYPLFTFGPGTKVDIK",49.9

# Target: SARS-CoV Spike protein (SARS-CoV, UniProt P59594 14-1190)
# Test: not given
row,Binder,bead binding signal (fold over isotype control)
1,"antibody 475 (antibody, V domains shown) VH: QVQLVESGGGVVQPGRSLRLSCAASGFTFSSYAMHWVRQAPGKGLEWVTFISHEGSNKYYADSVKGRFTISRDNSKNTLYLQMNSLRAEDTAVYYCARTFEYSSSSATGDFDYWGQGTLVTVSS VL: QSVLTQPPSVSGAPGQRVTISCTGSSSNIGAGYDVHWYQQLPGTAPKLLIYGNSNRPSGVPDRFSGSKSGTSASLAITGLQAEDEADYYCQSYDSSLSGVVFGGGTKLTVL",1.18
2,"antibody 476 (antibody, V domains shown) VH: QVQLVQSGSELKKPGASVKVSCKASGYTFTSYAMNWVRQAPGQGLEWMGWINTNTGNPTYAQGFTGRFVFSLDTSVSTAYLQISSLKAEDTGVYYCARDHELPNSSSWFGHFEYWGQGTLVTVSS VL: SYELTQPPSVSVSPGQTARITCSGDALPKQYAYWYQQKAGQAPVLVIYKDSERRSGIPERFSGSSSGTTVTLTISGVQAEDEADYYCQSADSSGTSVVFGGGTKLTVL",1.04
3,"antibody 477 (antibody, V domains shown) VH: QVQLVESGGGVVQPGRSLRLSCAASGITFSSYAMHWVRQAPGKGLEWVAVISYDGSDKYHADSVKGRFAISRDNSKNTLYLQMNSLRAEDTAVYYCAKDKGIAVAGTGWIRPDPEYYFDYWGQGTLVTVSS VL: not shown",1.3
4,"antibody 452 (antibody, V domains shown) VH: QVQLVESGGGLVKPGGSLRLSCAASGFTFSDYYLSWIRQAPGKGLEWVSYISSSGSNIYYADSVKGRFTISRDNAKNSLYLQMNSLRADDTAVFYCARAGRYCSGGSCRVEYFQHWGQGTLVTVSS VL: SYELTQPPSVSVSPGQTARITCSGDALPKQYAYWYQQKPGQAPVLVIYKDNERPSGIPERFSGSSSGTTATLTISGVQAEDEADYYCQSADSSGTVVFGGGTKLTVL",1.09
5,"antibody 446 (antibody, V domains shown) VH: QVQLVESGGGVVQPGRSLRLSCAASGFTFSSYAMHWVRQAPGKGLEWVAVISYDGSNKYYADSVKGRFTISRDNSKNTLYLQMNSLRAEDTAVYYCARPNSGSYFGYFQHWGQGTLVTVSS VL: QSVLTQPPSVSGAPGQRVTISCTGSSSNIGAGYDVHWYQQLPGTAPKLLIYGNSNRPSGVPDRFSGSKSGTSASLAITGLQAEDEADYYCQSYDSSLSGFYVFGTGTKVTVL",6.58
6,"antibody 454 (antibody, V domains shown) VH: QVQLVQSGAEVKKPGASLKVSCKASGYIFTGYYMHWVRQAPGQGLEWMGWISPNSGGTKYAQKFQGRVTMTRDTSISTAYMELSRLRSDDSAVYYCAREPYYDILTGYYTPRRYLDYWGQGTLVTVSS VL: QSALTQPASVSGSPGQSITISCTGTSSDVGDYNYVSWYQQHPGKVPKLMIYDVSHRPSGVTNRFSGSKSGNTASLTISGLRAEDEADYYCSSYTSSSTYVFGTGTKVTVL",1.1
7,"antibody 434 (antibody, V domains shown) VH: QVQLVQSGAEVKKPGASVQVSCKASGYTFSDYYIFWVRQAPGQGLEWMGCINPKSGGAIYAQRFQGRVTMTRDTSFNTAYMEMNRLGSDDTAVYYCVTRGPPDIAASGFAWHLDVWGQGTTVTVSS VL: DIVMTQSPLSLPVTPGEPASISCRSSQSLLSSNGYNYLEWYLQKPGQSPQLLMYLGSNRASGVPDRFSGSGSGTDFTLKINRVEAEDVGVYYCMQALQTPLTFGGGTKVEIK",1.36
8,"antibody 470 (antibody, V domains shown) VH: not shown VL: QSALTQPASVSGSPGQSITISCTGTSSDVGSYNLVSWYQQHPGKAPKLMIYEVSKRPSGVSNRFSGSKSGNTASLTISGLQAEDEADYYCCSYAGSSTLVFGGGTKLTVL",1.09
9,"antibody 485 (antibody, V domains shown) VH: QVQLQESGPGLVKPSGTLSLTCAVSGASISSSNWWSWVRQPPGKGLEWIGEIYHSGSTNYNPSLKSRVTISVDKSKNQFSLKLSSVTAADTAVYYCARRSYYGSGSYYPFDYWGQGTLVTVSS VL: QSALTQPASVSGSPGQSITISCTGTSSDVGSYNLVSWYQQHPGKAPKLMIYEGRKRPSGVSNRFSGSKSGNTASLTISGLQAEDEADYYCCSYAGSSTYVFGTGTKVTVL",1.12
10,"antibody 444 (antibody, V domains shown) VH: QVQLVESGGGLVKPGGSLRLSCAASGFTFSDYYMSWIRQAPGKGLEWVSYISSSGSTIYYADSVKGRFTISRDNAKNSLYLQMNSLRAEDTAVYYCARERKVVVAATRNYYYYYGMDVWGQGTTVTVSS VL: SYELTQPPSVSVSPGQTARITCSGDALPKQYAYWYQQKPGQAPVLVIYKDSERPSGIPERFSGSSSGTTVTLTISGVQAEDEADYYCQSADSSTWVFGGGTKLTVL",1
11,"antibody 439 (antibody, V domains shown) VH: QVQLVESGGGVVQPGRSLRLSCAASGFTFSSYAMHWVRQAPGKGLEWVAVISYDGSNKYYADSVKGRFTISRDNSKNTLYLQMNSLRAEDTAVYYCARPPRGGSYYPFDPWGQGTLVTVSS VL: not shown",1.23
12,"antibody 474 (antibody, V domains shown) VH: EVQLVESGGGLVQPGGSLRLSCAASGFTFSSYWMHWVRQAPGKGLVWVSRINSDGSSTSYADSVKGRFTISRDNAKNTLYRQMNSLRAEDTAVYYCALGPLDIVGSYYYYGMDVWGQGTTVTVSS VL: NFMLTQPHSVSESPGKTVTISCTGSSGSIASNYVQWYQQRPGSAPTTVIYEDNQRPSGVPDRFSGSIDSSSNSASLTISGLKTEDEADYYCQSYDSSNQDVVFGGGTKLTVL",1.1
13,"antibody 443 (antibody, V domains shown) VH: QMRLEESGPGLVKPSETLSLTCTVAGGSITSSDYFWGWLRQSPGKGLEWIASTYHGGSIQYHPALKSRVTISVDASKNQISLRLSSVTAADTAVYYCARDRGDDGPMGTYYFDHWGQGALVTVSS VL: QSVLTQPPSVSGAPGQSVTISCAGSSSNIGAGHDVHWYQQIPGTAPKLLICGNTNRPSGVPERFSGSRSGTSASLAITGLQAEDEAVYYCQSYDPSHVFFGTGTKLTVL",1.03

# Target: SARS-CoV full length Spike protein, wild type, expressed on CHO cells (SARS-CoV, UniProt P59594 14-1255)
# Test: not given
row,Binder,"median fluorescence intensity, fold over isotype control [fold over isotype]"
1,"anti-SARS-CoV-2 antibody 1037 (antibody, V domains shown) VH: QITLKESGPTLVKPTQTLTLTCTFSGFSLSTSGVGVGWIRQPPGKALEWLALIYWDDDKRYSPSLKSRLTITKDTSKNQVVLTMTNMDPVDTATYYCAHHTITRINDYWGQGTLVTVSS VL: QSALTQPASVSGSPGQSITISCTATSSDVGAYNYVSWYQQHPGKAPKLMIYDVSKRPSGVSNRFSGSKSGNTASLTISGLQAEDEADYYCSSYTSSSTVFGGGTKLTVLG",23.1
2,"anti-SARS-CoV-2 antibody 970 (antibody, V domains shown) VH: EVQLVESGGGLVQPGGSLRLSCAASGFTFSSYWMSWVRQAPGKGLEWVANINKDGSEKYYVDSVKGRFTISRDNAKNSLYLQMNSLRAEDTAVYFCARDYRYFDWLLSQIDLEIDYFDYWGQGTLVTVSS VL: not shown",124
3,"anti-SARS-CoV-2 antibody 923 (antibody, V domains shown) VH: EVQLVESGGGVVRPGGSLRLSCAASGFIFDDYDMTWVRQAPGKGLEWVSGISWNGGNTGYADSVKGRFTISRDNAKNSLYLQMNSLRAEDTALYHCAVIMSPIPRYSGYDWAGGAFDIWGQGTMVTVSS VL: SSELTQDPAVSVALGQTVRITCQGDSLRSYYASWYQQKPGQVPILVIYDKNNRPSGIPDRFSGSSSGNTASLTITGAQAEDEADYYCNSRDSSGNAVVFGGGTKLTVLG",118
4,"anti-SARS-CoV-2 antibody 1585 (antibody, V domains shown) VH: QVQLVESGGGVVQPGRSLRLSCAASGFTFSRFTLHWVRQAPGKGLEWVAVISYDGSNKYYADSVKGRFTISRDNSKSTLYLQMNSLRAEDTGVYYCARDPSTVTGYFDYWGQGTLVTVSS VL: SYVLTQPPSVSVAPGKTAKISCGGDSIGSKSVHWYQQKPGQAPVLVIYYDNDRPSGIPERFSGSNSGNTATLTISRVEAGDEADYYCQVWDIGVVFGGGTKLTVLG",19.9

# Target: SARS-CoV-2 full length Spike protein, wild type, expressed on CHO cells (SARS-CoV-2, UniProt P0DTC2 14-1273)
# Test: not given
row,Binder,"median fluorescence intensity, fold over isotype control [fold over isotype]"
1,"anti-SARS-CoV-2 antibody 1037 (antibody, V domains shown) VH: QITLKESGPTLVKPTQTLTLTCTFSGFSLSTSGVGVGWIRQPPGKALEWLALIYWDDDKRYSPSLKSRLTITKDTSKNQVVLTMTNMDPVDTATYYCAHHTITRINDYWGQGTLVTVSS VL: QSALTQPASVSGSPGQSITISCTATSSDVGAYNYVSWYQQHPGKAPKLMIYDVSKRPSGVSNRFSGSKSGNTASLTISGLQAEDEADYYCSSYTSSSTVFGGGTKLTVLG",83
2,"anti-SARS-CoV-2 antibody 970 (antibody, V domains shown) VH: EVQLVESGGGLVQPGGSLRLSCAASGFTFSSYWMSWVRQAPGKGLEWVANINKDGSEKYYVDSVKGRFTISRDNAKNSLYLQMNSLRAEDTAVYFCARDYRYFDWLLSQIDLEIDYFDYWGQGTLVTVSS VL: not shown",20.6
3,"anti-SARS-CoV-2 antibody 923 (antibody, V domains shown) VH: EVQLVESGGGVVRPGGSLRLSCAASGFIFDDYDMTWVRQAPGKGLEWVSGISWNGGNTGYADSVKGRFTISRDNAKNSLYLQMNSLRAEDTALYHCAVIMSPIPRYSGYDWAGGAFDIWGQGTMVTVSS VL: SSELTQDPAVSVALGQTVRITCQGDSLRSYYASWYQQKPGQVPILVIYDKNNRPSGIPDRFSGSSSGNTASLTITGAQAEDEADYYCNSRDSSGNAVVFGGGTKLTVLG",59
4,"anti-SARS-CoV-2 antibody 1585 (antibody, V domains shown) VH: QVQLVESGGGVVQPGRSLRLSCAASGFTFSRFTLHWVRQAPGKGLEWVAVISYDGSNKYYADSVKGRFTISRDNSKSTLYLQMNSLRAEDTGVYYCARDPSTVTGYFDYWGQGTLVTVSS VL: SYVLTQPPSVSVAPGKTAKISCGGDSIGSKSVHWYQQKPGQAPVLVIYYDNDRPSGIPERFSGSNSGNTATLTISRVEAGDEADYYCQVWDIGVVFGGGTKLTVLG",9.55
